Broadly, the Kd is the concentration at which binding is half-saturated.

The values below come from publication PMC6542726 (Molecular psychiatry, 2018).

The target of test [1] is GABAA receptor associated protein (GABARAP) (mouse) (UniProt Q9DCD6). Put plainly: ITC.
Test [2] concerns the target GABAA receptor associated protein (GABARAP) (mouse, UniProt Q9DCD6 1-117). Put plainly: ITC. On the technique in general: ITC needs no label: the signal is the heat of the interaction.

GABAA receptor associated protein (GABARAP) (mouse), sequence (Q9DCD6 whole entry): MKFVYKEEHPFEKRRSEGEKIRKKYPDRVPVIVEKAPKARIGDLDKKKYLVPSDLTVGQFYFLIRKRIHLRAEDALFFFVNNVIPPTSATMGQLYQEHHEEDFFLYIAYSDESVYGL
GABAA receptor associated protein (GABARAP), sequence (Q9DCD6 whole entry): as above

As for “ankyrin-G W1989R (from UniProt O70511 1985-2010) (domain or fragment)”, the Kd in test [1] was determined as 11 µM.

B1: ankyrin-G fragment of 26 amino acids (residues 1985-2010) (domain or fragment)
chain: PEDDWTEFSSEEIREARQAAASHAPS
Regarding B1, the affinity in test [2], expressed as Kd, was 2.9 nM.
